In patent US20200392228A1 (PANDION OPERATIONS, published 2020):
Where two headings read alike, the source gives them in different places.

B1: MAdCAM antibody Clone ID 38 of Table 6 (scFv) (scFv)
scFv: EVQLLESGGGLVQPGGSLRLSCAASGFTFGSYSMSWVRQAPGKGLEWVSAIGTGGGTYYADSVKGRFTISRDNSKNTLYLQMNSLRAEDTAVYYCAKGTPYYYYYGMDVWGQGTMVTVSSGGGGSGGGGSGGGGSGGGGSDIQMTQSPSSLSASVGDRVTITCRASQPLSNWLAWYQQKPGKAPKLLIYAASSLQSGVPSRFSGSGSGTDFTLTISSLQPEDFATYYCQQAISFPLTFGGGTKVEIK
B2: MAdCAM antibody Clone ID 33 of Table 6 (scFv) (scFv)
scFv: QVQLVQSGAEVKKPGASVKVSCKASGYTFTSYGISWVRQAPGQGLEWMGWMHPKSGDTGLTQKFQGRVTMTRDTSTSTVYMELSSLRSEDTAVYYCARDTPYYYYGMDVWGQGTTVTVSSGGGGSGGGGSGGGGSGGGGSDIQMTQSPSSLSASVGDRVTITCRASQSISSWLAWYQQKPGKAPKLLIYAASSLQSGVPSRFSGSGSGTDFTLTISSLQPEDFATYYCQQSYSVPITFGQGTKVEIK
B3: MAdCAM antibody Clone ID 21 of Table 6 (scFv) (scFv)
scFv: EVQLLESGGGLVQPGGSLRLSCAASGFTFSNAWMSWVRQAPGKGLEWVSTIVGNGGATYYADSVKGRFTISRDNSKNTLYLQMNSLRAEDTAVYYCARDNPLRWQGMDVWGQGTLVTVSSGGGGSGGGGSGGGGSGGGGSDIQMTQSPSSLSASVGDRVTITCRASQDISNYLNWYQQKPGKAPKLLIYAASSLQSGVPSRFSGSGSGTDFTLTISSLQPEDFATYYCQQSYSIPPTFGPGTKVDIK
B4: MAdCAM antibody Clone ID 27 of Table 6 (scFv) (scFv)
scFv: QVQLVQSGAEVKKPGASVKVSCKASGYTFTGYYIHWVRQAPGQGLEWMGWMNPNSGNTGYAQKFQGRVTMTRDTSTSTVYMELSSLRSEDTAVYYCARDPGFLGYCSGGSCYDGWFDPWGQGTLVTVSSGGGGSGGGGSGGGGSGGGGSDIQMTQSPSSLSASVGDRVTITCRASQSISSYLHWYQQKPGKAPKLLIYAASSLQSGVPSRFSGSGSGTDFTLTISSLQPEDFATYYCQQSYTAPYTFGQGTKLEIK
B5: MAdCAM antibody Clone ID 31 of Table 6 (scFv) (scFv)
scFv: QVQLVQSGAEVKKPGASVKVSCKASGYTFTSYYMHWVRQAPGQGLEWMGIINPSGGSTSYAQKFQGRVTMTRDTSTSTVYMELSSLRSEDTAVYYCARDTGYSYGRYYYYGMDVWGQGTLVTVSSGGGGSGGGGSGGGGSGGGGSDIQMTQSPSSLSASVGDRVTITCRASQSIGRWLAWYQQKPGKAPKLLIYDASNLQSGVPSRFSGSGSGTDFTLTISSLQPEDFATYYCQQSYSIPITFGQGTKVEIK
B6: MAdCAM antibody Clone ID 36 of Table 6 (scFv) (scFv)
scFv: QVQLVQSGAEVKKPGASVKVSCKASGYTFTGHYMHWVRQAPGQGLEWMGIINPSGGSTSYAQKFQGRVTMTRDTSTSTVYMELSSLRSEDTAVYYCARDTGYSYGRYYYYGMDVWGQGTTVTVSSGGGGSGGGGSGGGGSGGGGSDIQMTQSPSSLSASVGDRVTITCRASQSIGRWLAWYQQKPGKAPKLLIYDASNLQSGVPSRFSGSGSGTDFTLTISSLQPEDFATYYCQQSYSIPITFGGGTKVEIK
B7: MAdCAM antibody Clone ID 15 of Table 7 (IgG) (antibody, V domains shown)
VH: QVQLVQSGAEVKKPGASVKVSCKASGYTFTGYYMHWVRQAPGQGLEWMGWIGPNSGDTNYAQKFQGRVTMTRDTSTSTVYMELSSLRSEDTAVYYCARDLDHNWYFDLWGRGTLVTVSS
VL: DIVMTQSPLSLPVTPGEPASISCRSSQSLLHSNGYNYLDWYLQKPGQSPQLLIYSSSNRAPGVPDRFSGSGSGTDFTLKISRVEAEDVGVYYCMQALHIPLTFGGGTKVEIK
notes: IgG format
B8: MAdCAM antibody Clone ID 28 of Table 6 (scFv) (scFv)
scFv: QVQLVQSGAEVKKPGASVKVSCKASGYTFTDYFLHWVRQAPGQGLEWMGWMNPTSGNTGYAQKFQGRVTMTRDTSTSTVYMELSSLRSEDTAVYYCAREGEGSGFDYWGQGTLVTVSSGGGGSGGGGSGGGGSGGGGSDIQMTQSPSSLSASVGDRVTITCRASQGINSWLAWYQQKPGKAPKLLIYDASNLETGVPSRFSGSGSGTDFTLTISSLQPEDFATYYCQQSYSTPLTFGGGTKVEIK
B9: MAdCAM antibody Clone ID 37 of Table 6 (scFv) (scFv)
scFv: QVQLVQSGAEVKKPGASVKVSCKASGYTFSKHFVHWVRQAPGQGLEWMGWMNPNSGNSGYAQKFQGRVTMTRDTSTSTVYMELSSLRSEDTAVYYCARGEGGYYYYGMDVWGQGTLVTVSSGGGGSGGGGSGGGGSGGGGSDIQMTQSPSSLSASVGDRVTITCRASQSISSWLAWYQQKPGKAPKLLIYAASTLQSGVPSRFSGSGSGTDFTLTISSLQPEDFATYYCQQSYSTPWTFGQGTKVEIK
B10: MAdCAM antibody Clone ID 32 of Table 6 (scFv) (scFv)
scFv: QVQLVQSGAEVKKPGASVKVSCKASGYTLTDYYMHWVRQAPGQGLEWMGIINPSGGSTSYAQKFQGRVTMTRDTSTSTVYMELSSLRSEDTAVYYCAREEYSSSSGYFDYWGQGTLVTVSSGGGGSGGGGSGGGGSGGGGSDIQMTQSPSSLSASVGDRVTITCRASQGISSWLAWYQQKPGKAPKLLIYAASSLQSGVPSRFSGSGSGTDFTLTISSLQPEDFATYYCQQSYSTPLTFGQGTKVEIK
B11: MAdCAM antibody Clone ID 39 of Table 6 (scFv) (scFv)
scFv: QVQLVQSGAEVKKPGASVKVSCKASGYTFTSYYMHWVRQAPGQGLEWMGWMNPNSGNTGYAQKFQGRVTMTRDTSTSTVYMELSSLRSEDTAVYYCARDLGYYDSSGYFGAFDIWGQGTTVTVSSGGGGSGGGGSGGGGSGGGGSDIQMTQSPSSLSASVGDRVTITCQSSEDISSSLNWYQQKPGKAPKLLIYAASSLQIGVPSRFSGSGSGTDFTLTISSLQPEDFATYYCQQTYSTPYTFGQGTKVEIK
B12: MAdCAM antibody Clone ID 35 of Table 6 (scFv) (scFv)
scFv: EVQLLESGGGLVQPGGSLRLSCAASGFSFSSYTMNWVRQAPGKGLEWVSFITSSSRTIYYADSVKGRFTISRDNSKNTLYLQMNSLRAEDTAVYYCARDRRGDYGDSWYFDLWGRGTLVTVSSGGGGSGGGGSGGGGSGGGGSEIVMTQSPATLSVSPGERATLSCRASQSVRNYLAWYQQKPGQAPRLLIYGASTRATGIPARFSGSGSGTEFTLTISSLQSEDFAVYYCQQYGSSPLTFGGGTKVEIK
B13: MAdCAM antibody Clone ID 29 of Table 6 (scFv) (scFv)
scFv: QVQLVQSGAEVKKPGASVKVSCKASGYTFTSYYMHWVRQAPGQGLEWMAWMNPNSGNTGYAQKFQGRVTMTRDTSTSTVYMELSSLRSEDTAVYYCARDYDFWSGSLGYWGQGTLVTVSSGGGGSGGGGSGGGGSGGGGSDIQMTQSPSSLSASVGDRVTITCRASQGISNYLAWYQQKPGKAPKLLIYAASSLQSGVPSRFSGSGSGTDFTLTISSLQPEDFATYYCQQSYSTPWTFGQGTKVEIK
B14: MAdCAM antibody Clone ID 1 of Table 7 (IgG) (antibody, V domains shown)
VH: EVQLLESGGGLVQPGGSLRLSCAASGFTFSSYGMHWVRQAPGKGLEWVAVISDDGSDKYYADSVKGRFTISRDNSKNTLYLQMNSLRAEDTAVYYCTTSKYYYYYGMDVWGQGTTVTVSS
VL: DIQMTQSPSSLSASVGDRVTITCQASQDISKSLNWYQQKPGKAPKLLIYAASSLQSGVPSRFSGSGSGTDFTLTISSLQPEDFATYYCQQGYSTPLTFGGGTKVEIK
notes: IgG format
B15: MAdCAM antibody Clone ID 16 of Table 7 (IgG) (antibody, V domains shown)
VH: EVQLLESGGGLVQPGGSLRLSCAASGFTFDDYAMHWVRQAPGKGLEWVSYIDASGTTIYYADSVKGRFTISRDNSKNTLYLQMNSLRAEDTAVYYCAKDQAAAGYWYFDLWGRGTLVTVSS
VL: DIQMTQSPSSLSASVGDRVTITCQASQDISNYLNWYQQKPGKAPKLLIYKASTLESGVPSRFSGSGSGTDFTLTISSLQPEDFATYYCQQSYSTPITFGQGTRLEIK
notes: IgG format
B16: MAdCAM antibody Clone ID 13 of Table 7 (IgG) (antibody, V domains shown)
VH: QVQLVQSGAEVKKPGASVKVSCKASGYTFTTYYMHWVRQAPGQGLEWMGGFDPEDGETIYAQKFQGRVTMTRDTSTSTVYMELSSLRSEDTAVYYCARHAVAGAVGAGYYYYGMDVWGQGTMVTVSS
VL: DIQMTQSPSSLSASVGDRVTITCRASESISNWLAWYQQKPGKAPKLLIYAASTLQSGVPSRFSGSGSGTDFTLTISSLQPEDFATYYCQQSYSVPFTFGPGTKVDIK
notes: IgG format

Legend:
Assay in all cases: cell binding
[1] = target: T1, human MAdCAM expressed on cells (human, UniProt Q13477 19-382)
T1 construct: whole, on cells; also called MADCAM1
T1 sequence (looked up): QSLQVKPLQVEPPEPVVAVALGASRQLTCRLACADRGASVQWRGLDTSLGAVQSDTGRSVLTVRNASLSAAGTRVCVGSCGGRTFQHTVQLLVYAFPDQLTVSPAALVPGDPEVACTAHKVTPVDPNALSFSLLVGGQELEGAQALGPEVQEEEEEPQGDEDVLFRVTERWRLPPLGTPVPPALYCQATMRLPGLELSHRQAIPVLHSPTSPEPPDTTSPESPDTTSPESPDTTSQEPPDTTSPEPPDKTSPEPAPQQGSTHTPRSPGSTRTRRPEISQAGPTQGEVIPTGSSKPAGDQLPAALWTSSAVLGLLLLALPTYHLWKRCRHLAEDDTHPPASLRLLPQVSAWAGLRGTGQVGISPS

[2] = target: T2, mouse MAdCAM expressed on cells (mouse, UniProt Q61826 22-405)
T2 construct: whole, on cells
T2 sequence (looked up): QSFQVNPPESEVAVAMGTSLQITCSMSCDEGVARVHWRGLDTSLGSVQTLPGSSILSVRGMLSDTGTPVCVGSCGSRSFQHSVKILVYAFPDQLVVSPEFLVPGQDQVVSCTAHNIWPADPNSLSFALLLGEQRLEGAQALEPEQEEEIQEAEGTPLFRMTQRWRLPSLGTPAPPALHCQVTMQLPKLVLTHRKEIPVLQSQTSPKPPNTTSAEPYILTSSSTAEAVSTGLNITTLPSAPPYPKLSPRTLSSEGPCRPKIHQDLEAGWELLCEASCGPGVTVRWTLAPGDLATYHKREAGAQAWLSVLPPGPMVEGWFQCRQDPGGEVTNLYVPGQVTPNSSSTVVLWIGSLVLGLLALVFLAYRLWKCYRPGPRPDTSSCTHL

[3] = target: T1, human MAdCAM expressed on cells; remark: listed apart in the source
[4] = target: T2, mouse MAdCAM expressed on cells; remark: listed apart in the source

Binder | binding result [1] | binding result [2] | binding result [3] | binding result [4]
B1 | binds | no binding | – | –
B2 | binds | no binding | – | –
B3 | binds | no binding | – | –
B4 | binds | no binding | – | –
B5 | binds | no binding | – | –
B6 | binds | no binding | – | –
B7 | – | – | binds | no binding
B8 | binds | no binding | – | –
B9 | binds | no binding | – | –
B10 | binds | no binding | – | –
B11 | binds | no binding | – | –
B12 | binds | no binding | – | –
B13 | binds | no binding | – | –
B14 | – | – | binds | binds
B15 | – | – | binds | no binding
B16 | – | – | binds | no binding
